Measured values published in patent publication US20260034194A1, “PHARMACEUTICAL COMPOSITIONS AND METHODS OF TREATING PSP” (priority 2022, published 2026).
Substitutions are numbered along the chain they refer to. Names and notes keep the numbering of the source.

B1: MaSxph: Mantella aurantiaca (Golden mantella) saxiphilin, SEQ ID NO: 3 (protein, listed as Mantella aurantiaca)
chain: MALTFQTALYFTIIGLSFVTSSARDVRWCVISDLEQKKCNDLVGSCKVSGITLVCVHRSSTENCMTAIRDEQADAMFLDSGDVYKASMSPYNLKPIIAESYSSHKECLKKRQEALGGANVLGQFVPQCDEKGSYQPQQCYGSTGHCWCVNAIGEEIVGTKTQPGQTQATCERHDQTKCLKDRQKALAKKMIGGFVPQCDEKGNFKPRQCHGSTGYCWCTNANGEKIAATNTPPQQSPPTCERHDLDSCHYAVAVVKKSSIFQFNQLKGKRSCHSGVSKTDGWKAPVSVLVDKNLLSWDRAAKESIEKAVSKFFSDSCIPGATETNLCNQCMGEGGKKCMSSHDEPYYGDHGAFRCLKEDKGDVAFLKNTVLSDTHSEDYELLCPDNTRKPLNKYKECNLGKVPADAVVTRKSGDKIKDINDFLLEAQKKHCQLFSSAHGKDLMFDDSTTQLSLLPPEVDVFFFLGVQWLNTMKTLTADVKPPSKNKVRWCTVNNLEKMKCDDWSAVSGGAIECTEASSPEHCIKQIVKGEADAVTLDVQYMYEALKCGLLPAVEEYHNKDDFGPCKTPGSEIKDFGAKRAVALVKKSNKDINWHNLKGKKSCHTGVGDQAGWIIPVGLISRQIDNCNIDSFFSESCAPGSDTTSNFCKLCIGDPSNPMANTKCSLSDKEAYHGNEGAIRCLVEKGDVAFVHHTAVFENTDGKNPAEWAANLKSEDFEILCLDGSRAPVSNYMTCRLSGVPPRAIVTREESVSDVVRILINQQSLFGRNGFEKDMFQMFSSNKGQNLLFNDGTQCLIEFDRQPRGIMEDYFGKPYYNAVYNTSKCVLPSELTSACTFKHC
B2: E540Q: RcSxph STX binding pocket mutant E540Q (protein)
chain: MAPTFQTALFFTIISLSFAAPNAKQVRWCAISDLEQKKCNDLVGSCNVPDITLVCVLRSSTEDCMTAIKDGQADAMFLDSGEVYEASKDPYNLKPIIAEPYSSNRDLQKCLKERQQALAKKMIGHYIPQCDEKGNYQPQQCHGSTGHCWCVNAMGEKISGTNTPPGQTRATCERHELPKCLKERQVALGGDEKVLGRFVPQCDEKGNYEPQQFHGSTGYSWCVNAIGEEIAGTKTPPGKIPATCQKHDLVTTCHYAVAMVKKSSAFQFNQLKGKRSCHSGVSKTDGWKALVTVLVEKKLLSWDGPAKESIQRAMSKFFSVSCIPGATQTNLCKQCKGEEGKNCKNSHDEPYYGNYGAFRCLKEDMGDVAFLRSTALSDEHSEVYELLCPDNTRKPLNKYKECNLGTVPAGTVVTRKISDKTEDINNFLMEAQKRQCKLFSSAHGKDLMFDDSTLQLALLSSEVDAFLYLGVKLFHAMKALTGDAHLPSKNKVRWCTINKLEKMKCDDWSAVSGGAIACTEASCPKGCVKQILKGEADAVKLEVQYMYEALMCGLLPAVQEYHNKDDFGPCKTPGSPYTDFGTLRAVALVKKSNKDINWNNIKGKKSCHTGVGDIAGWVIPVSLIRRQNDNSDIDSFFGESCAPGSDTKSNLCKLCIGDPKNSAANTKCSLSDKEAYYGNQGAFRCLVEKGDVAFVPHTVVFENTDGKNPAVWAKNLKSEDFELLCLDGSRAPVSNYKSCKLSGIPPPAIVTREESISDVVRIVANQQSLYGRKGFEKDMFQLFSSNKGNNLLFNDNTQCLITFDRQPKDIMEDYFGKPYYTTVYGASRSAMSSELISACTIKHC
B3: F784A: RcSxph STX binding pocket mutant F784A (protein)
chain: B2 chain with Q559E, F803A
B4: F784S: RcSxph STX binding pocket mutant F784S (protein)
chain: B2 chain with Q559E, F803S
B5: Q787E: RcSxph STX binding pocket mutant Q787E (protein)
chain: B2 chain with Q559E, Q806E
B6: I782F: RcSxph STX binding pocket mutant I782F (protein)
chain: B2 chain with Q559E, I801F
B7: Y558F: RcSxph STX binding pocket mutant Y558F (protein)
chain: B2 chain with Q559E, Y577F
B8: F784Y: RcSxph STX binding pocket mutant F784Y (protein)
chain: B2 chain with Q559E, F803Y
B9: D785A: RcSxph STX binding pocket mutant D785A (protein)
chain: B2 chain with Q559E, D804A
B10: I782A/Y558A: RcSxph STX binding pocket double mutant I782A/Y558A (protein)
chain: B2 chain with Q559E, Y577A, I801A
B11: F784L: RcSxph STX binding pocket mutant F784L (protein)
chain: B2 chain with Q559E, F803L
B12: F784C: RcSxph STX binding pocket mutant F784C (protein)
chain: B2 chain with Q559E, F803C
B13: D794N: RcSxph STX binding pocket mutant D794N (protein)
chain: B2 chain with Q559E, D813N

Type: binding
Conditions: FP

In the case of B1, the “STX/F-STX affinity compared with RcSxph” value is reported as “enhanced affinity”.

Same assay, conditions: FP, 1 nM F-STX, 25° C.; errors S.D.

Point of comparison: B8, Kd 13.8 ± 1 nM. Against it:
- B2 — 770-fold higher, 10600 ± 1320 nM
- B3 — 53-fold higher, 725 ± 109 nM
- B4 — 230-fold higher, 3240 ± 508 nM
- B5 — 2.2-fold lower, 6.4 ± 1.6 nM
- B6 — within error, 16.1 ± 4.1 nM
- B7 — 2.2-fold lower, 6.3 ± 2.3 nM
- B9 — within 1.5-fold, 19.5 ± 2.5 nM
- B10 — 12-fold lower, 1.2 ± 0.2 nM
- B11 — 3.5-fold higher, 48 ± 6.8 nM
- B12 — 110-fold higher, 1510 ± 346 nM
- B13 — 230-fold higher, 3230 ± 397 nM
- B1 — 34-fold lower, 0.4 ± 0.1 nM

Same assay, conditions: ΔΔG = RT ln(Kd mutant or XSxph/Kd RcSxph); T = 298K; FP with F-STX

Point of comparison: B12, “ΔΔG” value 3.15 kcal/mol. Against it:
- B2 — higher, 4.30 kcal/mol
- B3 — lower, 2.71 kcal/mol
- B4 — higher, 3.60 kcal/mol
- B5 — lower, -0.09 kcal/mol
- B6 — lower, 0.46 kcal/mol
- B7 — lower, -0.10 kcal/mol
- B8 — lower, 0.37 kcal/mol
- B9 — lower, 0.57 kcal/mol
- B10 — lower, -1.07 kcal/mol
- B11 — lower, 1.11 kcal/mol
- B13 — higher, 3.60 kcal/mol
- B1 — lower, -1.73 kcal/mol
